Experimental data from US20090054362.

What was measured:
[1] = biological target: gp120 (SU envelope glycoprotein) (HIV-1 Ba-L) (UniProt P03375); test: EMSA; settings: 2'-F C and U, tRNA, room temp, also dose-dependent SPR
[2] = biological target: HIV-1 Ba-L virus (envelope gp120) (HIV-1 Ba-L) (UniProt P03375); test: cell_activity; settings: 2'-F C and U; neutralization in human PBMCs, p24 ELISA

Sequence | Kd ([1]; 1x cHBS) [nM] | IC50 [2] [nM] | Kd ([1]; 1x cHBS (10 mM HEPES pH 7.4, 150 mM NaCl, 1 mM CaCl2, 1 mM MgCl2, 2.7 mM KCl)) [nM]
GGGAGACAAGACUAGACGCUCAAUGUGGGCCACGCCCGAUUUUACGCUUUUACCCGCACGCGAUUGGUUUGUUUCCC [B40t77] | 31 | 2 | 
GGGAGACAAGACUAGACGCUCAAUGUGGGCCACGCCCGAUUUUACGCUUUUACCCGCACGCGAUUGGUUUGUUUUCGACAUGAGACUCACAACAGUUCCCUUUAGUGAGGGUUAAUU [B40] |  | 2 | 21
